Target: the molecule itself
Assay: SEC; purified protein incubated 1 hour in the dark, then Superdex 200 Increase 10/300 GL under dark condition; 20 mM Hepes pH 7.5, 200 mM NaCl

B1: OptoLacI^L (LacI^(W220F, 311-LOV2)) (other, E. coli | Avena sativa, UniProt P03023 1-311, looked up)
chain: MKPVTLYDVAEYAGVSYQTVSRVVNQASHVSAKTREKVEAAMAELNYIPNRVAQQLAGKQSLLIGVATSSLALHAPSQIVAAIKSRADQLGASVVVSMVERSGVEACKAAVHNLLAQRVSGLIINYPLDDQDAIAVEAACTNVPALFLDVSDQTPINSIIFSHEDGTRLGVEHLVALGHQQIALLAGPLSSVSARLRLAGWHKYLTRNQIQPIAEREGDFSAMSGFQQTMQMLNEGIVPTAMLVANDQMALGAMRAITESGLRVGADISVVGYDDTEDSSCYIPPLTTIKQDFRLLGQTSVDRLLQLSQGQLERIEKNFVITDPRLPDNPIIFASDSFLQLTEYSREEILGRNCRFLQGPETDRATVRKIRDAIDNQTEVTVQLINYTKSGKKFWNLFHLQPMRDQKGDVQYFIGVQLDGTEHVRDAAEREGVMLIKKTAENIDEAAAVKGNQLLPVSLVKRKTTLAPNTQTASPRALADSLMQLARQVSRLESGQ
notes: LOV2 domain of Avena sativa phototropin 1 (AsLOV2), residues 408-543; source: E. coli BL21 (DE3), plasmid pML364, purified (Ni-NTA twice, size exclusion chromatography)
- binding result: binds
